Assay results reported in publication PMC12579241.

Experiments:
Assay in all cases: SPR
[1] = biological target: IgG1 Fc fragment (prepared by IdeS digest of bevacizumab) (human)
[2] = biological target: recombinant Fab fragment of trastuzumab (human) [IgG part: P01857]
[3] = biological target: trastuzumab (Herceptin) (human) (UniProt P01834)

Substance | Kd [1] [nM] | Kd [2] [µM] | Kd [3] [nM]
Azo-ProtG (wild-type C2 domain of streptococcal protein G with N-terminal Azo-tag and C-terminal Strep-tag II) (domain or fragment) | 499 | 19.7 | –
Azo-ProtG^N478R (C2 domain of streptococcal protein G with Asn478 replaced by Arg, N-terminal Azo-ta (domain or fragment) | 682 | > 256 | 459
